# Reference: article PMC4482781 (Nature neuroscience, 2015)
# What was measured:
# [1] = test system: primary human brain endothelial cells (BEC); test: Colocalization of Aβ–LRP1 complex with PICALM by immunostaining in BEC; assay type: cell-based; details: 250 nM, 30 s
# [2] = test system: AD–derived endothelial monolayers; test: Aβ transcytosis across AD–derived endothelial monolayers; assay type: in vitro ADME, human; details: Aβ40 (1 nM) per Fig. 8b
Substance,colocalized Aβ–LRP1/PICALM puncta [1],Aβ transport improved by co–transfer of PICALM and LRP1 mini–gene [2],Aβ transcytosis improved by adenoviral–mediated transfer of PICALM ([2]; compared to GFP control)
"FAM–Aβ42: 6-carboxyfluorescein-labeled Aβ42, Anaspec catalog # 23526",rapid increase,–,–
"Aβ: amyloid β–peptide, isoform not named at the place; Aβ40 (1 nM) by legend of Fig. 8",–,89%,63%
